The source of these data is patent US20110038869A1 (Genmab, published 2011).

Experiment [1] addresses T1, full length CD32b2 on transfected IIA1.6 cells (human, UniProt P31994-2 43-291).
T1 construct: whole, on cells; also called IIA1.6-CD32b2
T1 sequence (looked up): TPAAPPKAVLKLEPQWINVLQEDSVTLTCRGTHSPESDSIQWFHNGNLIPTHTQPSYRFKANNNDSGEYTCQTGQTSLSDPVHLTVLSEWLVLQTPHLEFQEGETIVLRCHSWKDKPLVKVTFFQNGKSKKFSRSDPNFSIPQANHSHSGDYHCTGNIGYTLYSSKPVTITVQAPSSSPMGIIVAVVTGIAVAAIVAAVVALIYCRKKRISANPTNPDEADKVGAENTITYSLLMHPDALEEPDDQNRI
Put plainly: flow cytometry on IIA1.6-CD32b2 cells. As to the method:
(§1) After harvesting and counting, IIA1.6 cells stably transfected with full length CD32a and CD32b (van den Herik-Oudijk et al., 1994), control IIA1.6 cells and Daudi-luc cells were resuspended in PBS (1×10⁶ cells/ml). Cells were put in 96-well V-bottom plates (100 μl/well) and washed twice with FACS buffer (PBS supplemented with 0.1% BSA and 0.02% Na-azide). Thereafter, 50 μl of serially diluted HuMab in FACS buffer was added to the cells and incubated for 30 minutes at 4° C. After washing three times with FACS buffer, 50 μl of phycoerythrin (PE)-conjugated rabbit anti-human IgG (Jackson ImmunoResearch Europe), diluted 1:200 in FACS buffer, was added. After 30 minutes at 4° C. (in the dark), cells were washed three times, and specific binding of the HuMabs was detected by flow cytometry on a FACSCalibur (BD Biosciences). […] Binding curves were analyzed using non-linear regression (sigmoidal dose-response with variable slope) using GraphPad Prism V4.03 software (GraphPad Software, San Diego, Calif., USA).
To analyze binding of anti-CD32b HuMabs to CD32b1 and CD32b2, IIA1.6 cells transfected with full length CD32b1 or CD32b2 (van den Herik-Oudijk et al., 1994) were prepared as described supra. The assay was performed as described supra. Flow cytometry was performed on a FACS Canto II (BD Biosciences).

The target of a further experiment is T2, biotinylated CD32bECDHis (human, UniProt P31994 43-223, limits assumed, biotinylated (sites not given)).
T2 sequence (looked up): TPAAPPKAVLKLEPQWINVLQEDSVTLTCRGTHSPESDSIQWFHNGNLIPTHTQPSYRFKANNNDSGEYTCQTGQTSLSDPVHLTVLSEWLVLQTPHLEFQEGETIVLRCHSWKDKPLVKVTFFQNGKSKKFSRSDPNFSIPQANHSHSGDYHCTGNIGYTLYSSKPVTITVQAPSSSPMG
Briefly: competition ELISA, competitor 020. As to the method: ELISA wells were coated overnight at 4° C. with anti-CD32b HuMabs serially diluted in PBS. The ELISA wells were washed with PBS, blocked for one hour at room temperature with 2% (v/v) chicken serum (Gibco, Paisley, Scotland) in PBS and washed again with PBS. Subsequently, the immobilized antibodies were incubated with biotinylated CD32bECDHis serially diluted in PBSTC. After washing with PBS/Tween, bound biotinylated CD32bECDHis was incubated with Streptavidin-poly-HRP (Sanquin, Amsterdam, The Netherlands) for 1 hr at RT an the reaction was developed as described supra.
To this end, ELISA wells coated with anti-CD32b HuMabs were incubated in the presence of an excess of CD32b-specific antibody and the predetermined concentration of biotinylated CD32bECDHis in fluid phase. The reaction was developed as described.

The target of a further experiment is T3, CD32bECDHis (human, UniProt P31994 43-223, limits assumed).
T3 construct: Produced in HEK-293F cells; also called extracellular domain of CD32b with C-terminal His tag; soluble CD32b
T3 sequence (looked up): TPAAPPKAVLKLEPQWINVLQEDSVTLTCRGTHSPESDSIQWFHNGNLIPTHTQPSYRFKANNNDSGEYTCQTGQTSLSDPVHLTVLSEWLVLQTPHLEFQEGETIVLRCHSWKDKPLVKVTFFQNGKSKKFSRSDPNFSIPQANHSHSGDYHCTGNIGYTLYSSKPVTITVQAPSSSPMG
Briefly: TR-FRET competition against HuMab-KLH-AlexaFluor 647. The text has this: To study the interaction of anti-CD32b HuMabs with CD32b and CD32a in more detail TR-FRET technology was applied. To this end, CD32bECDHis and CD32aECDHis were labeled with a fluorescent donor molecule directed against the histidine tag (Anti-6×His Europium3+, PerkinElmer, Boston Mass.).
Briefly, all dilutions were made in 0.5× Lance detection buffer (PerkinElmer, Boston Mass.) supplemented with 0.2% BSA (obtained via dilution of 7.5% BSA Stabilizer solution, cat: CR84-100, PerkinElmer) and 0.03% (v/v) Tween-20 (Riedel de Haen, Seelze, Germany). CD32bECDHis and CD32aECDHis were diluted to 0.5 μg/ml. […] Anti-6×His Europium3+ (PerkinElmer, Boston Mass.) was diluted to 0.15 μg/ml. A 4-fold serial dilution of the tested HuMab antibody was made in a 96 wells non-binding plate (cat. 650261, Greiner Bio-one, Frickenhausen, Germany), ranging from 10 μg/ml-0.04 ng/ml. […] After overnight incubation at 4° C. in the dark, fluorescence was measured using an EnVision 2101 Multilabel reader (PerkinElmer, Boston, Mass.) applying the following settings; Lance/Delfia dual mirror, emission filter 615-665 nm, excitation filter 320 nm, delay time 60 μs, window 100 μs, 100 flashes, 2000 μs per cycle and bidirectional row-by-row reading. Binding curves were analyzed using non-linear regression (sigmoidal dose-response with variable slope) using GraphPad Prism V4.03 software (GraphPad Software, San Diego, Calif., USA).

Experiment [2] deals with T4, full length CD32a on stably transfected IIA1.6 cells (human, UniProt P12318 34-317).
T4 construct: whole, on cells; also called IIA1.6-CD32a; CD32a-expressing IIA1.6 cells
T4 sequence (looked up): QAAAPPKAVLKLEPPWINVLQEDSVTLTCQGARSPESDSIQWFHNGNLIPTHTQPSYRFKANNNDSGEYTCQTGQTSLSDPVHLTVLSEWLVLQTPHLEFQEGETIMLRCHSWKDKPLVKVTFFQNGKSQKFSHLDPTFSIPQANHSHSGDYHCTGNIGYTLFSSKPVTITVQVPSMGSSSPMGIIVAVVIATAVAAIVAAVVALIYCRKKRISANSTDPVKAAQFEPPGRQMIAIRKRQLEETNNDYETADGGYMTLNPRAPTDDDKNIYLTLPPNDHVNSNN
Put plainly: flow cytometry on IIA1.6 cells expressing full length CD32a, PE anti-human IgG, MFI. As to the method: as §1

For experiment [3], the target named is T4, full length CD32a on stably transfected …. Put plainly: flow cytometry on IIA1.6-CD32a cells. As to the method:
as §1

B1: Antibody 024 (antibody, V domains shown)
VH: QVQLVQSGAEVKKPGASVKVSCKASGYTFTSYGLSWVRQAPGQGLEWMGWISPYNGNTHYAQKLQGRVTMTTDTSTSTAYMDLRSLRSDDTAVYYCARDSAAHGMDVWGQGTTVTVSS
VL: DIQMTQSPSSLSASVGDRVTITCRASQGISSWLAWYQQKPEKAPKSLIYAASSLQSGVPSRFSGSRSGTDFTLTISSLQPEDFATYYCQQYNSYPYTFGQGTKLEIKR
notes: also called HuMab 024
In experiment [1], B1 showed an EC50 of 1.96 nM. Besides, the “% residual binding” value with biotinylated CD32bECDHis turned out to be 43%. Also, in the experiment with CD32bECDHis, the “% of maximal Fab-mediated inhibition” value is approximately 70% and the IC50 was found to be 0.45 nM. In experiment [2], the binding result is given as “no binding (tested: about 7e-8 M)”.

B2: Antibody 022 (antibody, V domains shown)
VH: QVQLVQSGAEVKKPGASVKVSCKASGYTFTSYGLSWVRQAPGQGLEWMGWISPYNGNTHYAQKLQGRVTMTTDTSTSTADMDLRSLRSDDTAVYYCARASAAHGMDVWGQGTTVTVSS
VL: DIQMTQSPSSLSASVGDRVTITCRASQGISSWLAWYQQKPEKAPKSLIYAASSLQSGVPSRFSGSRSGTDFTLTISSLQPEDFATYYCQQYNSYPYTFGQGTKLEIKR
notes: also called HuMab 022
For the molecule B2, in the experiment with biotinylated CD32bECDHis, the “% residual binding” value is 35%. Also, in the experiment with CD32bECDHis, the “% of maximal Fab-mediated inhibition” value was approximately 70% and the IC50 is 0.44 nM. In addition, the binding result in experiment [2] is listed as “no binding (tested: about 7e-8 M)”.

B3: Antibody 020 (antibody, V domains shown)
VH: QVQLVQSGGEVKKPGASVKVSCKTSGYTFTSYGISWVRQAPGQGLEWMGWISAYNGNTKYAQKLQGRLTMTTDTSTTTAYMELRSLRSDDTAVYYCARDSAAHGMDVWGQGTTVTVSS
VL: DIQMTQSPSSLSASVGDRVTITCRASQGISSWLAWYQQKPEKAPKSLIYAASSLQSGVPSRFRGSGSGTDFTLTISSLQPEDFATYYCQQYNSYPYTFGQGTKLEIKR
notes: also called HuMab 020
In the case of B3, the “% residual binding” value with biotinylated CD32bECDHis worked out at 20%. In addition, in the experiment with CD32bECDHis, the “% of maximal Fab-mediated inhibition” value was approximately 70% and the IC50 is 0.35 nM. Also, the binding result in experiment [2] is “no binding (tested: about 7e-8 M)”.

B4: Antibody 028 (antibody, V domains shown)
VH: QVQVVQSGAEVKKPGASVKVSCKTSGYTFTSYGISWVRQAPGQGLEWMGWISAYNGNTKYAQKLQGRLTMTTDTSTTTAYMELRSLRSDDTAVYYCARDSAAHGMDVWGQGTTVSVSS
VL: DIQMTQSPSSLSASVGDRVTITCRASQGISSWLAWYQQKPEKAPKSLIYAASSLQSGVPSRFSGSRSGTDFTLTISSLQPEDFATYYCQQYNSYPYTFGQGTKLEIKR
notes: List 1 gives no VL for antibody 028; The VL is therefore uncertain; also called HuMab 028
Molecule B4 gave an EC50 in experiment [1] of 2.18 nM. Moreover, the “% residual binding” value with biotinylated CD32bECDHis worked out at 24%. Further, in the experiment with CD32bECDHis, the “% of maximal Fab-mediated inhibition” value is approximately 70% and the IC50 came out at 0.35 nM. For the same molecule, the binding result in experiment [2] is recorded as “no binding (tested: about 7e-8 M)”.

B5: Antibody 026 (antibody, V domains shown)
VH: QVQLVQSGAEVKKPGASVKVSCKASGYTFTSYGLSWVRQAPGQGLEWMGWISAYNGNTNYAQKLQGRVTMTTDTSTSTAYMDLRSLRSDDTAVYYCARDSAAHGMDVWGQGTTVTVSS
VL: DIQMTQSPSSLSASVGDRVTITCRASQGISSWLAWYQQKPEKAPKSLIYAASSLQSGVPSRFSGSRSGTDFTLTISSLQPEDFATYYCQQYNSYPYTFGQGTKLEIKR
notes: Human antibody; also called HuMab 026
As for B5, the “% residual binding” value with biotinylated CD32bECDHis was 4%. Moreover, in the experiment with CD32bECDHis, the “% of maximal Fab-mediated inhibition” value is approximately 70% and the IC50 turned out to be 0.3 nM. The binding result in experiment [2] is “no binding (tested: about 7e-8 M)”.

B6: Antibody 038 (antibody, human IgG1, V domains shown)
VH: QVQLVESGGGVVQPGRSLRLSCAASGFTFSTYGMHWVRQAPGKGLEWVAVISHDGSDKYYADSVKGRFTISRDNSKNTLYLQMNSLRAEDTAVYYCARDQSIIETFDYWGQGTLVTVSS
VL: EIVLTQSPATLSLSPGERATLSCRASQSVSSYLAWYQQKPGQAPRLLIYDASNRATGIPARFSGSGSGTDFTLTISSLEPEDFAVYYCQQRSNWGFTFGPGTKVDIKR
notes: Human antibody; also called HuMab 038
Take B6: the EC50 stood at 3.48 nM in experiment [3] and 0.27 nM in experiment [1]. Besides, the “% residual binding” value with biotinylated CD32bECDHis was determined as 310%. The molecule also gave an IC50 with CD32bECDHis of 0.37 nM.
